{
  "source": "paper PMC10289334",
  "about": "(PLOS ONE, 2023)",
  "key": {"[1]": {"target": "Francisella tularensis class II fructose-1,6-bisphosphatase (FtFBPaseII), wild type (Francisella tularensis)", "assay": "crystal structure"}, "MtFBPaseII": {"target": "T1, MtFBPaseII (Mycobacterium tuberculosis, UniProt P9WN21)", "T1 construct": "gene glpX; wild type; tetramer", "assay_type": "binding"}, "FtFBPaseII": {"target": "T2, FtFBPaseII (Francisella tularensis, UniProt Q5NEJ8)", "T2 construct": "gene gplX", "conditions": "low (suboptimal) Mn2+; active site of chain C"}, "crystal structure": {"target": "the molecule itself", "assay": "crystal structure"}},
  "data": [
    {"molecule": "Francisella tularensis class II fructose-1,6-bisphosphatase (FtFBPaseII), wild type (enzyme)", "values": [
      {"measurement": "stoichiometry N", "setting": "[1]", "result": 4}
    ]},
    {"molecule": "O=P(O)(O)OC[C@H]1OC(O)(COP(=O)(O)O)[C@@H](O)[C@@H]1O", "note": "(stereo partly shown) [F1,6BP]", "values": [
      {"measurement": "X-ray crystal structure (Form C, 3.7 A)", "setting": "MtFBPaseII", "result": "The final refined structure confirmed the presence of the F1,6BP substrate in both chains"},
      {"measurement": "X-ray crystal structure (Form E, 2.2 A)", "setting": "FtFBPaseII", "result": "could be interpreted as what appeared to be a substrate molecule bound"}
    ]},
    {"molecule": "Mycobacterium tuberculosis class II fructose-1,6-bisphosphatase (MtFBPaseII), wild type (enzyme, also called Mt(Mg^2+)FBPaseII) MELVRVTEAGAMAAGRWVGRGDKEGGDGAAVDAMRELVNSVSMRGVVVIGEGEKDHAPMLYNGEEVGNGDGPECDFAVDPIDGTTLMSKGMTNAISVLAVADRGTMFDPSAVFYMNKIAVGPDAAHVLDITAPISENIRAVAKVKDLSVRDMTVCILDRPRHAQLIHDVRATGARIRLITDGDVAGAISACRPHSGTDLLAGIGGTPEGIIAAAAIRCMGGAIQAQLAPRDDAERRKALEAGYDLNQVLTTEDLVSGENVFFCATGVTDGDLLKGVRYYPGGCTTHSIVMRSKSGTVRMIEAYHRLSKLNEYSAIDFTGDSSAVYPLP", "values": [
      {"measurement": "stoichiometry N", "setting": "crystal structure", "result": 4}
    ]}
  ]
}
